Assay results reported in article PMC11751033.

Tested on: ATF 3r (six-zinc-finger artificial transcription factor with NLS, VP64 and HA tag) (artificial/designed (expressed in E. coli BL21))
Assay: EMSA
Conditions: EMSA: 2.5% glycerol, 5 mM MgCl2, 0.05% NP-40, 50 mM KCl, 20 uL, 20 pmol DNA, 0 C 1 h; 4-8% native PAGE in TBE pH 8.2-8.4, 5 C, SYBR Safe stain; binding pH not …

Question: IFNG target dsDNA (ATF 3 site) was tested. Which Kd did it give?
Answer: 5.2 nM
